The source of these data is patent publication US20170015742A1 (published 2017).

The chains are these.
B1: CODV011 (bispecific antibody, human IgG1, kappa, L234A L235A)
heavy: EVQLVQSGSELKKPGASVKVSCKASGYTFTNYGMYWVRQAPGQGLEWMGWINTETGKPTYADDFKGRFVFSLDTSVSTAYLQISSLKAEDTAVYYCARTNYYYRSYIFYFDYWGQGTMVTVSSGGGGSGGGGSEFVLTQSPGTLSLSPGERATLSCERSSGDIGDSYVSWYQQKPGQAPRLVIYADDQRPSGIPDRFSGSGSGTDFTLTISRLEPEDFAVYYCQSYDINIDIVFGGGTKVEIKGGGSGASTKGPSVFPLAPSSKSTSGGTAALGCLVKDYFPEPVTVSWNSGALTSGVHTFPAVLQSSGLYSLSSVVTVPSSSLGTQTYICNVNHKPSNTKVDKKVEPKSCDKTHTCPPCPAPEAAGGPSVFLFPPKPKDTLMISRTPEVTCVVVDVSHEDPEVKFNWYVDGVEVHNAKTKPREEQYNSTYRVVSVLTVLHQDWLNGKEYKCKVSNKALPAPIEKTISKAKGQPREPQVYTLPPSREEMTKNQVSLTCLVKGFYPSDIAVEWESNGQPENNYKTTPPVLDSDGSFFLYSKLTVDKSRWQQGNVFSCSVMHEALHNAYTQKSLSLSPGK
light: EVTLRESGPALVKPTQTLTLTCTFSGFSLSTYGMGVGWIRQPPGKALEWLANIWWDDDKYYNPSLKNRLTISKDTSKNQVVLTMTNMDPVDTATYYCARIESIGTTYSFDYWGQGTMVTVSSGGGGSGGGGSDTVLTQSPATLSLSPGERATLSCRASESVSTHMHWYQQKPGQAPRLLIYGASNLESGVPARFSGSGSGTDFTLTISSLEPEDFAVYFCQQSWNDPFTFGQGTKLEIKGGGSGRTVAAPSVFIFPPSDEQLKSGTASVVCLLNNFYPREAKVQWKVDNALQSGNSQESVTEQDSKDSTYSLSSTLTLSKADYEKHKVYACEVTHQGLSSPVTKSFNRGEC
notes: Anti-human VEGF-A/anti-human PDGF-BB cross-over DVD-Ig (CO-DVD-Ig); also called PR-1575521
B2: CODV012 (bispecific antibody, human IgG1, kappa, L234A L235A)
heavy: EVQLVQSGSELKKPGASVKVSCKASGYTFTNYGMYWVRQAPGQGLEWMGWINTETGKPTYADDFKGRFVFSLDTSVSTAYLQISSLKAEDTAVYYCARTNYYYRSYIFYFDYWGQGTMVTVSSGGGGSGGGEFVLTQSPGTLSLSPGERATLSCERSSGDIGDSYVSWYQQKPGQAPRLVIYADDQRPSGIPDRFSGSGSGTDFTLTISRLEPEDFAVYYCQSYDINIDIVFGGGTKVEIKGGGSGASTKGPSVFPLAPSSKSTSGGTAALGCLVKDYFPEPVTVSWNSGALTSGVHTFPAVLQSSGLYSLSSVVTVPSSSLGTQTYICNVNHKPSNTKVDKKVEPKSCDKTHTCPPCPAPEAAGGPSVFLFPPKPKDTLMISRTPEVTCVVVDVSHEDPEVKFNWYVDGVEVHNAKTKPREEQYNSTYRVVSVLTVLHQDWLNGKEYKCKVSNKALPAPIEKTISKAKGQPREPQVYTLPPSREEMTKNQVSLTCLVKGFYPSDIAVEWESNGQPENNYKTTPPVLDSDGSFFLYSKLTVDKSRWQQGNVFSCSVMHEALHNAYTQKSLSLSPGK
light: EVTLRESGPALVKPTQTLTLTCTFSGFSLSTYGMGVGWIRQPPGKALEWLANIWWDDDKYYNPSLKNRLTISKDTSKNQVVLTMTNMDPVDTATYYCARIESIGTTYSFDYWGQGTMVTVSSGGGGSGGGDTVLTQSPATLSLSPGERATLSCRASESVSTHMHWYQQKPGQAPRLLIYGASNLESGVPARFSGSGSGTDFTLTISSLEPEDFAVYFCQQSWNDPFTFGQGTKLEIKGGGSGRTVAAPSVFIFPPSDEQLKSGTASVVCLLNNFYPREAKVQWKVDNALQSGNSQESVTEQDSKDSTYSLSSTLTLSKADYEKHKVYACEVTHQGLSSPVTKSFNRGEC
notes: Anti-human VEGF-A/anti-human PDGF-BB cross-over DVD-Ig (CO-DVD-Ig); also called PR-1571824
B3: CODV014 (bispecific antibody, human IgG1, kappa, L234A L235A)
heavy: EVQLVQSGSELKKPGASVKVSCKASGYTFTNYGMYWVRQAPGQGLEWMGWINTETGKPTYADDFKGRFVFSLDTSVSTAYLQISSLKAEDTAVYYCARTNYYYRSYIFYFDYWGQGTMVTVSSGGGGSEFVLTQSPGTLSLSPGERATLSCERSSGDIGDSYVSWYQQKPGQAPRLVIYADDQRPSGIPDRFSGSGSGTDFTLTISRLEPEDFAVYYCQSYDINIDIVFGGGTKVEIKGGSASTKGPSVFPLAPSSKSTSGGTAALGCLVKDYFPEPVTVSWNSGALTSGVHTFPAVLQSSGLYSLSSVVTVPSSSLGTQTYICNVNHKPSNTKVDKKVEPKSCDKTHTCPPCPAPEAAGGPSVFLFPPKPKDTLMISRTPEVTCVVVDVSHEDPEVKFNWYVDGVEVHNAKTKPREEQYNSTYRVVSVLTVLHQDWLNGKEYKCKVSNKALPAPIEKTISKAKGQPREPQVYTLPPSREEMTKNQVSLTCLVKGFYPSDIAVEWESNGQPENNYKTTPPVLDSDGSFFLYSKLTVDKSRWQQGNVFSCSVMHEALHNAYTQKSLSLSPGK
light: B2 light
notes: Anti-human VEGF-A/anti-human PDGF-BB cross-over DVD-Ig (CO-DVD-Ig); also called PR-1571826
B4: CODV010 (bispecific antibody, human IgG1, kappa, L234A L235A)
heavy: EVTLRESGPALVKPTQTLTLTCTFSGFSLSTYGMGVGWIRQPPGKALEWLANIWWDDDKYYNPSLKNRLTISKDTSKNQVVLTMTNMDPVDTATYYCARIESIGTTYSFDYWGQGTMVTVSSGEVQLVQSGSELKKPGASVKVSCKASGYTFTNYGMYWVRQAPGQGLEWMGWINTETGKPTYADDFKGRFVFSLDTSVSTAYLQISSLKAEDTAVYYCARTNYYYRSYIFYFDYWGQGTMVTVSSGGASTKGPSVFPLAPSSKSTSGGTAALGCLVKDYFPEPVTVSWNSGALTSGVHTFPAVLQSSGLYSLSSVVTVPSSSLGTQTYICNVNHKPSNTKVDKKVEPKSCDKTHTCPPCPAPEAAGGPSVFLFPPKPKDTLMISRTPEVTCVVVDVSHEDPEVKFNWYVDGVEVHNAKTKPREEQYNSTYRVVSVLTVLHQDWLNGKEYKCKVSNKALPAPIEKTISKAKGQPREPQVYTLPPSREEMTKNQVSLTCLVKGFYPSDIAVEWESNGQPENNYKTTPPVLDSDGSFFLYSKLTVDKSRWQQGNVFSCSVMHEALHNAYTQKSLSLSPGK
light: DTVLTQSPATLSLSPGERATLSCRASESVSTHMHWYQQKPGQAPRLLIYGASNLESGVPARFSGSGSGTDFTLTISSLEPEDFAVYFCQQSWNDPFTFGQGTKLEIKGGGSGGGEFVLTQSPGTLSLSPGERATLSCERSSGDIGDSYVSWYQQKPGQAPRLVIYADDQRPSGIPDRFSGSGSGTDFTLTISRLEPEDFAVYYCQSYDINIDIVFGGGTKVEIKGGGSGRTVAAPSVFIFPPSDEQLKSGTASVVCLLNNFYPREAKVQWKVDNALQSGNSQESVTEQDSKDSTYSLSSTLTLSKADYEKHKVYACEVTHQGLSSPVTKSFNRGEC
notes: Anti-human VEGF-A/anti-human PDGF-BB cross-over DVD-Ig (CO-DVD-Ig); also called PR-1571823

T1 sequence (P15692 other isoform, or with tags, fused parts or gaps limits assumed): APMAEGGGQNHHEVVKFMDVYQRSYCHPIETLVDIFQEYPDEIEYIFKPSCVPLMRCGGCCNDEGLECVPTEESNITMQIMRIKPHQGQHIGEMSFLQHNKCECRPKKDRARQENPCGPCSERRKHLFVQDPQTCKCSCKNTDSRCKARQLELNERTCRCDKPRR

One assay concerns the target T1, Human VEGF-A 165 (human, UniProt P15692 207-395).
T1 construct: also called hVEGF165
The experiment in a line: SPR (Biacore), method of Example 1.1. Here is the method: (§1) Unreacted moieties on the biosensor surface were blocked with ethanolamine. For kinetic analysis, rate equations derived from the 1:1 Langmuir binding model were fitted simultaneously to multiple antigen injections (using global fit analysis) with the use of Scrubber 2 (BioLogic Software), Biacore Biaevaluation 4.0.1 software or Biacore T100 Evaluation software. Purified antibodies or DVD-Ig molecules were diluted in running buffer for capture across goat anti-human Fc reaction surfaces. Antibodies or DVD-Ig molecules to be captured as a ligand (1 μg/ml) were injected over reaction matrices at a flow rate of 10 μl/minute. During the assay, all measurements were referenced against the capture surface alone (i.e., with no captured antibody or DVD-Ig molecule). […] The equilibrium dissociation constant KD (M) of the reaction between antibodies and the target antigen was then calculated from the kinetic rate constants by the following formula: KD=Koff/Kₒₙ. Binding was recorded as a function of time and kinetic rate constants were calculated. In this assay, on-rates as fast as 10⁶M⁻¹s⁻¹ and off-rates as slow as 10⁻⁶ s⁻¹ could be measured.
In turn, B1 registered a Kd of 0.038 nM and a kon of 1.1e+06 M⁻¹ s⁻¹.

With B2, the Kd was 0.028 nM and the kon turned out to be 2.7e+06 M⁻¹ s⁻¹.

B3 registered a Kd of 0.036 nM and an on-rate constant (kon) of 2.2e+06 M⁻¹ s⁻¹.

For B4, binding was characterised by a dissociation constant (Kd) of 6.6 nM and the kon stood at 57000 M⁻¹ s⁻¹.

For a further assay, the target named is T2, Human PDGF-BB (human, UniProt P01127 82-190).
T2 construct: also called hPDGF-BB
T2 sequence (P01127 82-190 limits assumed): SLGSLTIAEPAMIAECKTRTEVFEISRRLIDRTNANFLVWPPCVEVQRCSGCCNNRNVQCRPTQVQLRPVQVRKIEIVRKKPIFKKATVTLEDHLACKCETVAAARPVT
The experiment in a line: SPR (Biacore), method of Example 1.1. On the procedure:
as §1
In the case of B1, the Kd is 1.8 pM and the kon was found to be 3.8e+07 M⁻¹ s⁻¹.

B2 came in with a Kd of 1.5 pM and a kon of 7e+07 M⁻¹ s⁻¹.

B3 yielded a Kd of 2.4 pM and a kon of 5.5e+07 M⁻¹ s⁻¹.

Take B4: binding was characterised by a dissociation constant (Kd) of 4 pM and the kon turned out to be 4.1e+07 M⁻¹ s⁻¹.
